Test results published in paper PMC3521961, “Molecular Basis for Recognition of Dilysine Trafficking Motifs by COPI” (Developmental Cell, 2012).
One block for each binder: values may come before it. No end group written: not given here.

Key:
Conditions in all cases: both partners purified
[1] = target: T1, yeast β'-COP 1-304 (N-terminal WD-repeat domain), untagged, wild type (yeast (S. cerevisiae), UniProt P41811 1-304); test: crystal structure; β'1-304 (untagged) with CTFKKTN; details in the Supplemental Experimental Procedures
T1 construct: also called β'-COP N-terminal WD-repeat domain
T1 sequence (looked up): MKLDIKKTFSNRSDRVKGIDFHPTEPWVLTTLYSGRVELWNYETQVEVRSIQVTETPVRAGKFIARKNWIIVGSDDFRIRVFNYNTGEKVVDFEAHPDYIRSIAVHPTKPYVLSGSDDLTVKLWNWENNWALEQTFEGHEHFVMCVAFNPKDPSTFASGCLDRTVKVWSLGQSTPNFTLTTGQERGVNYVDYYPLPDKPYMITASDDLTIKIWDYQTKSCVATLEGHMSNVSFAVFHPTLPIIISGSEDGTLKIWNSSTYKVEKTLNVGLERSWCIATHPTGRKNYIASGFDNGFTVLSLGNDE

[2] = target: T1, yeast β'-COP 1-304 (N-terminal …); test: crystal structure; β'1-304 (10 mg/ml) with CTFKTKTN (30 mg/ml, mixed 1:10); 0.1 M HEPES (pH 7.5), 0.5 M ammonium sulfate, 30% v/v MPD; space group P6(1)
[3] = target: T2, yeast β'-COP 1-604 (both WD-repeat domains) (yeast (S. cerevisiae), UniProt P41811 1-604); test: crystal structure; β'1-604 (10 mg/ml) with CTFKTKTN (30 mg/ml, mixed 1:10); 0.1 M bicine (pH 9.0), 10% MPD; space group P3(1), twinned
T2 construct: constructs are in the Supplemental Experimental Procedures
T2 sequence (looked up): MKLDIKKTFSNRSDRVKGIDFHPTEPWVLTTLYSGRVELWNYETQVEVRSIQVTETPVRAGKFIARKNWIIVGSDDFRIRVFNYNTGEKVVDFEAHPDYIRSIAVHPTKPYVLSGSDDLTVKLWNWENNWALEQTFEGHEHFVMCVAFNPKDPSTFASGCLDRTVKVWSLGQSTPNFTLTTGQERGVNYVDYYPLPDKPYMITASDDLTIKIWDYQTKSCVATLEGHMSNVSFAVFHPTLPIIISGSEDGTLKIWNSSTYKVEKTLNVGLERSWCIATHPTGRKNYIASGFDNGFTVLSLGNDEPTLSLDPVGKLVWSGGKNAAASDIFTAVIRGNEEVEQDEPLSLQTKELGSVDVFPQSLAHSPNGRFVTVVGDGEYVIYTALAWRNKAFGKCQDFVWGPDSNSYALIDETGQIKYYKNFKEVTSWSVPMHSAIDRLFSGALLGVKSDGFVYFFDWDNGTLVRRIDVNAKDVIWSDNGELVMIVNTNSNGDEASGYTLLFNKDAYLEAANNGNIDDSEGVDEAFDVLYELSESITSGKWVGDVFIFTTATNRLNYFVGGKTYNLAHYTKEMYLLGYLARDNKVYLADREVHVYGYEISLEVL

[4] = target: T3, yeast α-COP 1-327 (N-terminal WD-repeat domain), wild type (yeast (S. cerevisiae), UniProt P53622 1-327); test: ITC; Microcal VP-ITC, 10°C, 35 injections of 8 µL; peptide in the syringe at ten times the molar concentration of the protein in the cell; α-COP desalted into 20 mM Hepes pH 7.4, 300 mM NaCl (high salt required for stability)
T3 construct: α-COP (Ret1), yeast, residues 1-327, N-terminal WD-repeat domain; also called α1-327; Wild type A327; source: E. coli BL21(DE3)pLysS, purified (glutathione sepharose, thrombin cleavage, S200 gel filtration); not shown: GST, C-terminal, cleaved
T3 sequence (looked up): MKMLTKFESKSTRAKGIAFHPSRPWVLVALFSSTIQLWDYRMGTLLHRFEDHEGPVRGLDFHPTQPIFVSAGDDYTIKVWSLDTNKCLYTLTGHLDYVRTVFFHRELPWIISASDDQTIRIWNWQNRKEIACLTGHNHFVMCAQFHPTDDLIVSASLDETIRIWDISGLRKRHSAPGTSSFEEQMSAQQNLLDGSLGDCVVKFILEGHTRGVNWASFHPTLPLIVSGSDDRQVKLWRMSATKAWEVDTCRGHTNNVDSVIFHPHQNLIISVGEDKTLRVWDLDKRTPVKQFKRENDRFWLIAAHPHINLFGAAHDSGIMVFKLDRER

[5] = target: T1, yeast β'-COP 1-304 (N-terminal …); test: ITC; Microcal VP-ITC, 10°C; peptide in the syringe at ten times the molar concentration of the β'-COP construct in the cell; 50 mM HEPES (pH 7.4), 100 mM NaCl
[6] = target: T4, yeast β'-COP 1-304 D206A E248A (yeast (S. cerevisiae), UniProt P41811 1-304, D206A | E248A); test: as above
T4 construct: constructs are in the Supplemental Experimental Procedures; also called D206A E248A mutant
T4 sequence (looked up): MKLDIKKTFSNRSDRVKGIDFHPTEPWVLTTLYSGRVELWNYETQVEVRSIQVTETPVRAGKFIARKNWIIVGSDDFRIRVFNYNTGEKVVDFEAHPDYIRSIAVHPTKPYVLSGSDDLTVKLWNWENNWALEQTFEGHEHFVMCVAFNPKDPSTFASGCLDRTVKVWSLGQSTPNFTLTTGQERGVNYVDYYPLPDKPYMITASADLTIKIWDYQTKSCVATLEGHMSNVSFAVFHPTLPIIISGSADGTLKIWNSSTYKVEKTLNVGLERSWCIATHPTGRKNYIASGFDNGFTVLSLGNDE

[7] = target: T5, yeast β'-COP 1-304 D98A D117A (yeast (S. cerevisiae), UniProt P41811 1-304, D98A | D117A); test: as above
T5 construct: constructs are in the Supplemental Experimental Procedures; also called D98A D117A mutant
T5 sequence (looked up): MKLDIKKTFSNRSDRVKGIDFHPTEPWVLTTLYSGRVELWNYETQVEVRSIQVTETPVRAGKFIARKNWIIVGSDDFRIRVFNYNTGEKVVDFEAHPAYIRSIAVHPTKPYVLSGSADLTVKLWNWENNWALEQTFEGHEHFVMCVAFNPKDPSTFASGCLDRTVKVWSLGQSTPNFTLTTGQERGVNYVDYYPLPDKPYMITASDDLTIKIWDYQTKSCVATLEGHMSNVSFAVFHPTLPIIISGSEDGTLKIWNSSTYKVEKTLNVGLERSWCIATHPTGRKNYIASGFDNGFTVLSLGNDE

[8] = target: T6, yeast β'-COP 1-304 R15A K17A R59A (yeast (S. cerevisiae), UniProt P41811 1-304, R15A | K17A | R59A); test: as above
T6 construct: constructs are in the Supplemental Experimental Procedures; also called β'-COP R15A K17A R59A mutant
T6 sequence (looked up): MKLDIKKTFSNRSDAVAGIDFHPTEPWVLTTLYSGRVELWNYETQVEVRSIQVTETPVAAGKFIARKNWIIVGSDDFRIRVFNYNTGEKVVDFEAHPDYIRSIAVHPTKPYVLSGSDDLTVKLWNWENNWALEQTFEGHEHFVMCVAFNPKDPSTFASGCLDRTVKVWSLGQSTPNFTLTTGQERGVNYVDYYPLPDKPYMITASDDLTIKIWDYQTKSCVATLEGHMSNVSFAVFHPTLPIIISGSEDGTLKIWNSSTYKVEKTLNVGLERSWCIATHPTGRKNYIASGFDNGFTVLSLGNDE

[9] = target: T7, yeast β'-COP 1-304 (N-terminal WD-repeat domain), untagged (yeast (S. cerevisiae), UniProt P41811 1-304); test: ITC; Microcal VP-ITC, 10°C; peptide in the syringe, protein in the cell; 50 mM Hepes pH 7.4, 100 mM NaCl
T7 construct: source: E. coli BL21(DE3)pLysS, purified (glutathione sepharose, thrombin cleavage, S200 gel filtration); not shown: GST, C-terminal, cleaved
T7 sequence (looked up): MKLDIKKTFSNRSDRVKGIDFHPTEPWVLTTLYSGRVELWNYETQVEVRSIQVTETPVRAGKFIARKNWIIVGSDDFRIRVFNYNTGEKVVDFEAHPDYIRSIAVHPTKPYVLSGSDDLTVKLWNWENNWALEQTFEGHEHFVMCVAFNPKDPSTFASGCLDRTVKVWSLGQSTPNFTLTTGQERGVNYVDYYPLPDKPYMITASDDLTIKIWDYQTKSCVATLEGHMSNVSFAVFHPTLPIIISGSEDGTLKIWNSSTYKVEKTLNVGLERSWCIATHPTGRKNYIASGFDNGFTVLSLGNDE

binding result [1]: binds
B1: CTFKKTN peptide (KKxx motif derived from yeast Wbp1), used in crystallization (peptide)
peptide: CTFKKTN
notes: KKxx motif derived from the C terminus of yeast Wbp1; The N-terminal cysteine may not be a residue of Wbp1 (surmise); also called CTFKKTN motif; source: peptide

binding result [2]: binds | binding result [3]: binds
B2: CTFKTKTN peptide (KxKxx motif, synthetic peptide used in crystallization) (peptide)
peptide: CTFKTKTN
notes: synthetic KxKxx peptide used in crystallization; Looks like the Wbp1-derived CTFKKTN with a threonine between the two lysines; source: synthetic peptide

Kd [4]: 81 µM
B3: KKTN motif peptide from yeast Wbp1 (as used in ITC) (peptide)
chain: CTFKKTN-OH

Kd [5]: ~160 µM
B4: Emp47 KxKxx peptide without the -5 lysine (STKLL) (peptide)
chain: RQEIISTKLL-OH

Kd [5]: ~85 µM
B5: Wbp1 KKTN motif peptide used for ITC (peptide)
chain: CTFKKTN-OH

Kd [6]: < 300 µM | Kd [5]: 6.8 µM | Kd [7]: < 300 µM | Kd [8]: < 300 µM
B6: KxKxx motif peptide from wild-type yeast Emp47 (RQEIIKTKLL) (peptide)
peptide: RQEIIKTKLL
notes: also called KTKLL motif; source: peptide

Kd [9]: 10 to 20 µM
B7: yeast Emp47 C-terminal KxKxx peptide RQEIIKTKLL (peptide)
peptide: RQEIIKTKLL
notes: also called KTKLL motif
